Results on three molecules are retold here after patent US20100291106A1 (Novartis, published 2010).

The target of test [1] is T1, cynomolgus complement C3b protein (cynomolgus monkey (Macaca fascicularis)).
T1 construct: also called cyno C3b; cynoC3b
Nature of the test: SPR (Biacore T100), C3b captured by anti-C3d antibody, IgG as analyte, 1:1 model. (SPR reads the build-up and loss of mass on a sensor chip optically.)

For test [2], the target named is T2, human complement C3b protein (human, UniProt P01024 23-667; P01024 749-1663).
T2 construct: Purified plasma C3b (Complement Technology, Quidel); Depending on the assay it was captured by an anti-C3d antibody, coated, biotinylated or coupled to beads; also called human C3b; huC3b
The test is described as above.

In test [3] the target is T2, human complement C3b protein. Description: cell-based or functional assay.
Test [4] has the same target. Description: AlphaScreen bead proximity, C3b-Acceptor beads pre-incubated with antibody, then C3b-Donor beads; inhibition of C3b-C3b dimer formation; unit from the axis [Antibody] nM; value lies above the highest point shown (about 800 nM) [D]. How it is done: (§1) In brief, purified C3b and fP were conjugated to unconjugated acceptor or donor beads (PerkinElmer) using AminoLink Reductant (Pierce) during a 48 h incubation at room temperature. Beads were quenched using Carboxymethoxylamine Hemihydrochloride (Aldrich), and purified by centrifugation at 13000 rpm and three washes with 0.1M TBST. Purified fB(D24G/N260D) and fH were biotinylated during a 30 min incubation with 20-fold molar excess of NHS-Chromogenic-biotin (Pierce) at room temperature, and purified using Zeba 0.5 ml desalting columns (Pierce).
(§2) For C3b-C3b and C3b-fP proximity, Fabs or IgGs respectively were pre-incubated with C3b-Acceptor beads (20 μg/ml) for 60 min at room temperature. C3b-Donor beads or fP-Donor beads (20 μg/ml) were then added, and the plate was incubated overnight at room temperature before reading. For C3b-fB and C3b-fH proximity, antibodies were pre-incubated with C3b-Acceptor beads (20 μg/ml) for 60 minutes at room temperature. Biotinylated fB(D24G/N260D) or fH were then added, and incubated for 60 minutes at room temperature. SA-Donor beads were then added (20 μg/ml) and the plate was incubated overnight at room temperature before reading. Plates were read on the BMG Pherastar (ex=680, em=520-620).
In general terms: Alpha assays give light when donor and acceptor beads are brought close together.

Test [5] shares this target. Description: ELISA, C3b or C3 captured by anti-C3d antibody. (In general: An ELISA detects its analyte on a solid surface through an enzyme-linked reagent.)
For test [6] the target is unchanged. Nature of the test: AlphaScreen bead proximity, C3b-Acceptor beads pre-incubated with antibody, then biotinylated fB(D24G/N260D) and SA-Donor beads; blocked ligand: fB [A]. The procedure:
as §1, §2

The target is the same in test [7]. Description: AlphaScreen bead proximity, C3b-Acceptor beads pre-incubated with antibody, then biotinylated fH and SA-Donor beads; blocked ligand: fH [C].
Test [8] has as its target T3, human C3d (human, UniProt P01024 1002-1303).
T3 construct: domain: C3d
Nature of the test: C3d binding ELISA, IgG titrated from about 0.006 to 100 nM.

Test [9] has as its target T2, human complement C3b protein. Description: bead proximity assay, C3b-acceptor beads; competitor fP-donor beads. How it is done: as §2
Test [10] concerns the target T1, cynomolgus complement C3b protein. Description: SPR (Biacore), C3b captured by anti-C3d antibody, Fab as analyte.
Test [11] concerns the target T2, human complement C3b protein. Described as above.
For test [12] the target is unchanged. Description: bead proximity assay, C3b-acceptor beads; competitor biotinylated fB(D24G/N260D). How it is done: as §2
For test [13] the target is unchanged. Description: bead proximity assay, C3b-acceptor beads; competitor biotinylated fH. How it is done: as §2
For test [14], the target named is T1, cynomolgus complement C3b protein. Description: cell-based or functional assay.
Test [15] concerns the target T2, human complement C3b protein. Description: cell-based or functional assay. This is another data set of the same source.
The target in test [16] is T1, cynomolgus complement C3b protein. Nature of the test: solution equilibrium titration (SET), ECL detection, Fab.
The target of test [17] is T2, human complement C3b protein. The test is described as above.
For a further test, the target named is T4, human C5 (human, UniProt P01031 19-673; P01031 678-1676).
T4 construct: Captured by an anti-C5 antibody in the ELISA
Nature of the test: cross reactivity, capture ELISA with anti-C5 capture antibody, anti-His detection.

Test [18] addresses T3, human C3d. Description: cross reactivity, ELISA on C3d, anti-His detection. How it is done:
In order to determine whether the anti-C3b antibodies described herein can bind to complement pathway components iC3b and C3c, the following steps were performed: Directly add iC3b(complement Technologies A115), C3d (complement Technologies A117), or C3c (complement Technologies A116), at 2 μg/ml in Carbonate Buffer onto Coat Maxisorp plate Nunc (442404) at 100 μl per well. Seal plates and incubate at 4° C. overnight. Aspirate plates and wash 3 times with PBS/0.5% Tween 20. Block plates with Diluent (PBS, 4% BSA Fraction V (Fisher ICN16006980), 0.1% Tween 20 (Sigma P1379), 0.1% Triton X-100 (Sigma P234729)) and incubate for 2 h at room temperature or overnight at 4° C. Then wash plates once with PBS/0.5% Tween 20. Dilute Fabs at 100 nM and subsequent dilutions (or higher concentration if needed) in diluent and plate 100 μl per well. Incubate at room temperature for 1 h. Wash plates 3 times with PBS/0.5% Tween 20. Add 100 μl/well of anti-Histidine-HRP monoclonal detection antibody at 1:400 in diluent and incubate at room temperature for 1 h. Then wash 4 times with PBS/0.5% Tween 20. Add 100 μl of TMB substrate (Pierce 34028) and incubate at room temperature for up to 5 min. Add 50 μl of Stop solution (2N Sulfuric Acid) to each well and read plate at 450 nm and correct for plastic reading at 570 nm.

Substitutions are numbered along the chain they refer to.

T3 sequence (P01024 1002-1303 limits assumed): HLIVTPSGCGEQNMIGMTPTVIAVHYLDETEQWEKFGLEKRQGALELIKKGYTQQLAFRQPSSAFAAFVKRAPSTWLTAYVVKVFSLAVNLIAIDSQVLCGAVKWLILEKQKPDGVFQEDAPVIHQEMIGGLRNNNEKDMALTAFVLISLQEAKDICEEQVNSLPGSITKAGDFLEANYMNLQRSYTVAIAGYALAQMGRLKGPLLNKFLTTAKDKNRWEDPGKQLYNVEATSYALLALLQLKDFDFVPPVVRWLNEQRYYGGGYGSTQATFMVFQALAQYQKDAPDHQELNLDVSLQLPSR
T2 sequence (P01024 23-667 P314L, chain 1 of 2): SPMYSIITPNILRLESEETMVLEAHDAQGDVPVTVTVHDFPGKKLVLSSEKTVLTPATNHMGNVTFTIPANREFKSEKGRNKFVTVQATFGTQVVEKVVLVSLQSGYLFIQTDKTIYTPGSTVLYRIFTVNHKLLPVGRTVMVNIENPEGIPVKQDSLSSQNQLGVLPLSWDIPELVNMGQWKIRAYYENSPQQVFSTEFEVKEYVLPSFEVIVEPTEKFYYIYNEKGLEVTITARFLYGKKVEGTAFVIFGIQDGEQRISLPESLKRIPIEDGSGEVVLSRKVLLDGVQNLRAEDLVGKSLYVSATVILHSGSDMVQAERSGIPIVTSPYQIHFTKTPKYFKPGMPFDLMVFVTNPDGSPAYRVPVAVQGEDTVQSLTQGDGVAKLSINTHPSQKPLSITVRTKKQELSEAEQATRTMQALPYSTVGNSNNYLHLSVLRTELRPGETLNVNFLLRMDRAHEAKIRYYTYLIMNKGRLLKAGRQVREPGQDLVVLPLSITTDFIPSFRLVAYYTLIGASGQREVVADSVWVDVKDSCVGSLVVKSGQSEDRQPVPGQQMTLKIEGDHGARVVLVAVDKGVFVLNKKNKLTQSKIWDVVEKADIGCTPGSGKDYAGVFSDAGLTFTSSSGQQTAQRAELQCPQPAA
T2 sequence (P01024 749-1663, chain 2 of 2): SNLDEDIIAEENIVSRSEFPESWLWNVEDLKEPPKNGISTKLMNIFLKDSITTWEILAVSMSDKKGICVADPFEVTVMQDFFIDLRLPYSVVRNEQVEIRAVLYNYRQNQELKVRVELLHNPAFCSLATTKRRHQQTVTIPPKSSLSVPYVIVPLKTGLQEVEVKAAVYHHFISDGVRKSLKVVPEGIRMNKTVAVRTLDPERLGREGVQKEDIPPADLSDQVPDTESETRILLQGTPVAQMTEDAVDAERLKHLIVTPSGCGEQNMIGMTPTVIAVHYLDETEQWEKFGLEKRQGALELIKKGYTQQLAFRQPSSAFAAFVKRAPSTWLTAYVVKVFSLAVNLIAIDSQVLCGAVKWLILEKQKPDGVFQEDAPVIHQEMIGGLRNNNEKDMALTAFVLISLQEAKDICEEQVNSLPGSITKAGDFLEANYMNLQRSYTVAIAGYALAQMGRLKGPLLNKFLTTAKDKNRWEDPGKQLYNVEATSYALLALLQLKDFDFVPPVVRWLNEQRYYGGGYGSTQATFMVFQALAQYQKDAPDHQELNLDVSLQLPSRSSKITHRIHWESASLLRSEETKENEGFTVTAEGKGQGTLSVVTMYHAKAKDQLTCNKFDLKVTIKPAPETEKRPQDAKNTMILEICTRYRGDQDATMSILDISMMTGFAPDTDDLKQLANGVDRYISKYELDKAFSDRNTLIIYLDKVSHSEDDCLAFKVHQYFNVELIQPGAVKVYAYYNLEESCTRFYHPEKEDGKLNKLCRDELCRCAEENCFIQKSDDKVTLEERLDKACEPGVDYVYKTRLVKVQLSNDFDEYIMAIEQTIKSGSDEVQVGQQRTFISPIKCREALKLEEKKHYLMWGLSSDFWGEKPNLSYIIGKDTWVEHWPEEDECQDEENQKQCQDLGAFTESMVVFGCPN
T4 sequence (P01031 19-673 limits assumed, chain 1 of 2): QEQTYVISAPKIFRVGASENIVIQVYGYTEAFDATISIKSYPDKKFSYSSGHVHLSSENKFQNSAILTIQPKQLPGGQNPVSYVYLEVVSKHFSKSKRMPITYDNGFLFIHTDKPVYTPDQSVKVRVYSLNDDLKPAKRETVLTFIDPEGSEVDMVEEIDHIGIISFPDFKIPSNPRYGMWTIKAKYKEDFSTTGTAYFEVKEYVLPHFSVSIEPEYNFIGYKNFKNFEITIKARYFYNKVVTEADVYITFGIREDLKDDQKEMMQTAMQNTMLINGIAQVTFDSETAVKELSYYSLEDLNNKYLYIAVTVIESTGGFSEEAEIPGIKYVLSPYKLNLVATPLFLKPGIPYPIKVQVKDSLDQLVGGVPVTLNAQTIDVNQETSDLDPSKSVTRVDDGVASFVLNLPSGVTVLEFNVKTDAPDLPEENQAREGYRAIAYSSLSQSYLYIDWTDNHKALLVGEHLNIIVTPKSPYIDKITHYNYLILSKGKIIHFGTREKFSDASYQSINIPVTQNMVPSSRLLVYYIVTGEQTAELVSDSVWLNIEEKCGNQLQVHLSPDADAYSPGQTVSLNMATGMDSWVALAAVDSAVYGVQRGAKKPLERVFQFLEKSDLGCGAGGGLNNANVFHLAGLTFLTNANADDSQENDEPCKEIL
T4 sequence (P01031 678-1676 limits assumed, chain 2 of 2): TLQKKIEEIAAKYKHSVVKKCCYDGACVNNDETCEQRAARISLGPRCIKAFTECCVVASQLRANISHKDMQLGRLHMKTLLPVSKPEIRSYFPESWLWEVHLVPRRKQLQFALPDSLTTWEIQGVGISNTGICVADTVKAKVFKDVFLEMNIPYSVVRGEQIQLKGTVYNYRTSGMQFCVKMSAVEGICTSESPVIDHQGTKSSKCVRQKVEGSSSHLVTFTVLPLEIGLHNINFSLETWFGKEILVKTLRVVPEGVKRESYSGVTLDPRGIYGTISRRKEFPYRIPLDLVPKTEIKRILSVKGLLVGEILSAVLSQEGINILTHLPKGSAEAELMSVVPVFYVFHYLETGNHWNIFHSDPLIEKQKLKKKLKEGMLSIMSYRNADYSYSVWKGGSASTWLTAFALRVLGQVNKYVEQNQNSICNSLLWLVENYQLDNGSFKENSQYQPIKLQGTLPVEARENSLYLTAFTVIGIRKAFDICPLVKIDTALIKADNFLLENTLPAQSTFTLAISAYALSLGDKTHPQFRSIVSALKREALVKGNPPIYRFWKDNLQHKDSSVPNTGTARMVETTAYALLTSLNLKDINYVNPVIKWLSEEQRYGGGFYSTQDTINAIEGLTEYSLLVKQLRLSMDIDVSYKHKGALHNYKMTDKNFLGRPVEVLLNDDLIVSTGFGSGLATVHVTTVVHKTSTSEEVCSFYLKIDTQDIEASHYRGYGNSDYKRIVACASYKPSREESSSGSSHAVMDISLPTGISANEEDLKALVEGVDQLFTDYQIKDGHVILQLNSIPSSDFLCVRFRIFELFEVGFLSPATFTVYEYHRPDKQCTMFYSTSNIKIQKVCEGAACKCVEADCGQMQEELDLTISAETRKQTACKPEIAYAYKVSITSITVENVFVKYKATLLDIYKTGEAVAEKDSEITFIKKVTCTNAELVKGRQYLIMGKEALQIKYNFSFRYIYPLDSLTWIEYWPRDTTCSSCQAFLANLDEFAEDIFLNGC

B1: MOR09675 IgG (antibody, V domains shown)
VH: EVQLVQSGAEVKKPGASVKVSCKASGYTFTGYYINWVRQAPGQGLEWMGIISPNQGTTGYAQKFQGRVTMTRDTSISTAYMELSSLRSEDTAVYYCARGNYDHLDYWGQGTLVTVSS
VL: DIQMTQSPSSLSASVGDRVTITCRASQGISNYLNWYQQKPGKAPKLLIYDASTLQSGVPSRFSGSGSGTDFTLTISSLQPEDFATYYCQQDWHTLPVTFGQGTKVEIKR
notes: Germlined human IgG1 with leucines 234 and 235 changed to alanines, kappa; also called antibody 9675
As to B1, in test [1], the affinity, expressed as Kd, was 0.202 nM; the off-rate (koff) (commonly a measure of how fast the partners let go of each other) worked out at 0.00029 s⁻¹; the on-rate constant (kon) – broadly, a measure of how fast the partners come together – was 1.45e+06 M⁻¹ s⁻¹. In addition, in test [2], the dissociation constant Kd (commonly the concentration at which binding is half-saturated) was determined as 0.00288 nM, the koff was 1.02e-06 s⁻¹ and the kon worked out at 353000 M⁻¹ s⁻¹. Further, in [3], the “MAC deposition on zymosan, IC50” value was not above 5 nM; the “hemolysis of rabbit red blood cells, 10% human or cynomolgus serum, IC50” value was not above 50 nM; the “inhibition of C3a and C5a generation during hemolysis, IC50” value was not above 50 nM. Besides, the 50% effective concentration (EC50) – broadly, the midpoint of the concentration-response curve – in test [4] is 2360 nM. Further, the “fold binding selectivity for C3b over C3” value in test [5] is more than 1000 fold. In addition, the “IC50 (read off the curve)” value in test [6] is approximately 0.05 nM. Moreover, in [7], the “IC50 (read off the curve)” value is approximately 0.02 nM. For the same molecule, in the test with human C3d [8], the binding result was “no binding (tested: 100 nM)”.

B2: MOR09398 Fab (Fab, V domains shown)
VH: QVQLVESGGGLVQPGGSLRLSCAASGFTFSSYWMTWVRQAPGKGLEWVSSIKIKPDGYAASVKGRFTISRDNSKNTLYLQMNSLRAEDTAVYYCARLFYQYFARMDYWGQGTLVTVSS
VL: DIQMTQSPSSLSASVGDRVTITCRASQDISNYLNWYQQKPGKAPKLLIYAASNLQSGVPSRFSGSGSGTDFTLTISSLQPEDFATYYCQQWDSFSPTFGQGTKVEIKR
notes: also called Fab 9398
With B2, the IC50 (usually the point on the concentration scale where inhibition reaches its midpoint) in [9] was 300 nM; in test [12], 0.1 nM; in [13], 0.1 nM. Besides, the Kd in test [10] stood at 0.092 nM; in [11], 0.003 nM; in test [16], 0.1 nM; in test [17] it was 0.004 nM. For the same molecule, the “C3b Dep (nM), cyno serum, IC50” value in test [14] came to 56 nM. Also, in [14], the “HA (nM), 10% cyno serum, IC50” value is 86 nM. The “MAC Dep (nM), cyno serum, IC50” value in [14] was 5 nM. Further, the “C3b Dep (nM), human serum, IC50” value in [15] came out at 13 nM. Further, the “HA (nM), 10% human serum, IC50” value in test [15] was 45 nM. Further, in test [15], the “MAC Dep (nM), human serum, IC50” value is 1 nM. The binding result with human C5 and in the test with human C3d [18] was “no binding” each time.

B3: MOR09397 Fab (Fab, V domains shown)
VH: B2 VH
VL: B2 VL with W91H, S93T, S95R
notes: also called Fab 9397
For B3, the concentration for half-maximal inhibition (IC50) in test [9] was determined as 300 nM; in test [12] it was 0.1 nM; in test [13] it was 0.1 nM. Besides, the equilibrium dissociation constant (Kd) came to 0.089 nM in test [10], 0.007 nM in test [11], 0.12 nM in [16] and 0.002 nM in test [17]. Further, the “C3b Dep (nM), cyno serum, IC50” value in test [14] is 35 nM. In test [14], the “HA (nM), 10% cyno serum, IC50” value turned out to be 59 nM. For the same molecule, in test [14], the “MAC Dep (nM), cyno serum, IC50” value amounted to 7 nM. Besides, the “C3b Dep (nM), human serum, IC50” value in test [15] is 13 nM. The “HA (nM), 10% human serum, IC50” value in test [15] worked out at 35 nM. Also, the “MAC Dep (nM), human serum, IC50” value in test [15] is 1 nM. Moreover, the binding result with human C5 and in the test with human C3d [18] was “no binding” each time.
